Results: patent US6831161B1, “Method of affinity separation and ligands for use therein” (Affibody AB, priority 1998, dated 2004)
Changes are numbered by the printed parent chain.

B1: ABDmut: ABD with Asn28 replaced by leucine, Asn42 by aspartic acid, Asn45 by aspartic acid and Asn46 by lysine (protein)
chain: MKAIFVLNAQHDEAVDANSLAEAKVLALRELDKYGVSDYYKDLIDKAKTVEGVKALIDEILAALP
B2: ABDmut54-57-58: ABDmut domain containing alanine substitutions at positions 54, 57 and 58 (protein)
chain: B1 chain with K54A, I57A, D58A
B3: ABDwt: Wild type Albumin Binding Protein domain from Streptococcus G148 with affinity towards human serum albumin; four asparagine residues (protein)
chain: B1 chain with L28N, D42N, D45N, K46N
B4: ABDmut22-25-26: ABDmut domain containing alanine substitutions at positions 22, 25 and 26 (protein)
chain: B1 chain with E22A, V25A, L26A
B5: ABDmut29-30-33: ABDmut domain containing alanine substitutions at positions 29, 30 and 33 (protein)
chain: B1 chain with R29A, E30A, K33A

Columns and labels:
HSA [1] = molecular target: T1, HSA (Homo sapiens, UniProt P02768); assay: Alkaline resistance of affinity columns: HSA capacity after repeated 0.5 M NaOH washes; settings: ligand on Sepharose 4B; 15 cycles of 0.5 M NaOH wash, total exposure over 6 hours; FIG. 6
Method: In order to evaluate the usability of the stabilized HSA-binding protein in biotechnology, two affinity chromatography matrices were prepared; one with the unmutated protein (ABDwt) as a control and the other with the mutated ABD (ABDmut). The matrix used was Sepharose 4B (Amersham Pharmacia Biotech, Uppsala, Sweden) with carbodiimide CMC (Sigma Aldrich, Sweden) as the coupling reagent. ABDwt (4.5 mg) and ABDmut (8.5 mg) were dissolved in 9 ml water separately. 3.5 and 5.0 ml gel was added to ABDwt and ABDmut solutions respectively. Finally 0.38 g of CMC was added to the solutions and they were incubated at room temperature over night. The gels were packed on HR columns (d=5 mm, h=43 mm) and pulsed with 0.5 M ethanolamine, 0.5 M NaCl, pH 8.3 in order to inactivate the matrix and 0.1 M NaAc, 0.5 M NaCl, pH 4 in order to wash unbounded proteins out. After this, the columns were ready to use for affinity purification of HSA.
In order to explore the difference between the ABDwt column and the ABDmut column in respect of stability against alkaline treatment, both columns were repeatedly washed with 0.5 M NaOH. By using the AKTA explorer the columns were loaded with HSA, the protein was eluted by lowering the pH (Stahl et al., (1989) supra) and finally both columns were washed with NaOH. […] The flow rate used was 60 cm/h and the eluted material was collected and analyzed in each round. […]

HSA [2] = molecular target: T1, HSA; format: binding; settings: for Kaff (affinity constant, ratio between Kon and Koff): BIAcore 2000, HSA immobilized on CM5 chip
Excerpt: (§1) A BIAcore 2000 instrument (Biacore AB) was used for real time affinity analysis. HSA and IgG were immobilized on two different surfaces of a CM5 sensor chip by amine coupling to the carboxylated dextran layer. This coupling was done according to the manufacturer's recommendation (Biacore AB). The IgG surface was used as a control. The samples were run through a 0.45 μm filter and injected over the surface in a random order at a flow rate of […].
Also, an analysis of the kinetic parameters was performed for the proteins that still remained active. This was done by analysing the binding behaviour in different concentrations and thereafter calculating the binding constants by using BIAevaluation 2.1 software (BIAcore AB). The concentrations used were 40-220 nM for ABDwt, 200-600 nM for ABDmut and 800-1250 nM for the NaOH treated ABDmut.

HSA [3] = molecular target: T1, HSA; assay: Binding characteristics (BIAcore) before and after treatment with 0.5 M NaOH for 24 hours; settings: room temperature, 800 nM on BIAcore, FIG. 5
Method: In order to examine the stability of ABDwt and ABDmut, the binding characteristics were analysed before and after treatment with 0.5 M NaOH in room temperature for 24 hours. Both ABDwt and ABDmut were solubilized in 1×HBS (10 mM HEPES, pH 7.4, 150 mM NaCl, 3.4 mM EDTA, 0.005% P20) to a concentration of 800 nM and analyzed on BIAcore 2000 (Biacore AB, Uppsala, Sweden). In order to determine the activity change after exposure to a very alkaline environment, the proteins were solubilized in 0.5 M NaOH. After incubation in NaOH for 24 hours, the samples were run through a NAP-10 column (Amersham Pharmacia Biotech, Uppsala, Sweden) equilibrated with 30 mM NH4Ac. The protein containing samples were lyophilized and resolubilised in 1×HBS to a concentration of 800 nM in order to be analyzed in the BIAcore 2000.
as §1

HSA [4] = molecular target: T1, HSA; assay: HSA-binding analysis of ABDmut triple mutants on BIAcore; settings: 200 nM, 20 μl/min, immobilised HSA on CM5 chip, FIG. 7
Excerpt: ABDmut22-25-26, ABDmut29-30-33, and ABDmut54-57-58 proteins were produced and purified as described in Example 2. In order to analyse the binding behaviour of the different triple-mutants a BI core 2000 instrument was used. HSA was immobilised on a sensor chip surface of a CM5 sensor chip by amine coupling to the carboxylated dextran layer. As control, a sensor chip surface containing IgG was used. This coupling was done according to the manufacturers recommendation (Biacore AB). The samples of the three proteins were run through a 0.45 μm filter and injected over the surface in a random order at a flow rate of 20 μl/min. The concentration used was 200 nM and all samples were analysed three times. […] In addition, residue 62 could also be used for substitutions.

Row | Molecule | Column activity (HSA capacity) against NaOH exposure time (HSA [1]) | Koff (dissociation rate) (HSA [2]) | Kon (rate at which the proteins associate) (HSA [2]) | Kaff (affinity constant, ratio between Kon and Koff) (HSA [2]) | Affinity towards HSA after exposure to alkaline solution (HSA [3]) | Ability to bind HSA (sensorgrams) (HSA [4])
1 | B1 | keeping the activity throughout the experiment | 0.0012 L/s | 1.8 × 10^4 l/Ms | 1.5 × 10^7 l/M | has the affinity preserved | 
2 | B2 |  |  |  |  |  | retain their ability to bind HSA
3 | B3 |  | 0.0013 L/s | 9.0 × 10^4 l/Ms | 6.9 × 10^7 l/M | loses the affinity towards HSA | 
4 | B4 |  |  |  |  |  | retain their ability to bind HSA
5 | B5 |  |  |  |  |  | retain their ability to bind HSA
